This passage reports antiviral specific activity (EMCV on T98G cells) and Kd results from patent US5684129.

Experiment [1] deals with Type 1 human interferon receptor complex (human) (UniProt P17181).
The target is the same in experiment [2]. Description: 125I-ligand binding to T98G cells at +4° C., Scatchard analysis, high affinity component.

On to IFN-alpha1 Nδ4 (ligand), for which, in experiment [1], the antiviral specific activity (EMCV on T98G cells) came out at 7.1e+06 U/mg protein. Broadly, the Kd is a measure of binding affinity in units of concentration. A higher Kd goes with a looser complex. For the substance IFN-alphaCon1 (ligand), the antiviral specific activity (EMCV on T98G cells) in experiment [1] worked out at 3e+09 U/mg protein. The substance also returned a Kd in experiment [2] of 7.7 pM.
